Measured values published in patent US20260209370A1 (RADIANT BIOTHERAPEUTICS, published 2026).

B1: Urelumab IgG4 (antibody, V domains shown)
VH: QVQLQQWGAGLLKPSETLSLTCAVYGGSFSGYYWSWIRQSPEKGLEWIGEINHGGYVTYNPSLESRVTISVDTSKNQFSLKLSSVTAADTAVYYCARDYGPGNYDWYFDLWGRGTLVTVSS
VL: EIVLTQSPATLSLSPGERATLSCRASQSVSSYLAWYQQKPGQAPRLLIYDASNRATGIPARFSGSGSGTDFTLTISSLEPEDFAVYYCQQRSNWPPALTFGGGTKVEIK
B2: effector silent α-4-1BB (AG10058; Fab #3) MB (protein, part only; not given: Fab constants, linkers, ferritin carriers, not shown: another chain or arm of the molecule; a dimerising Fc or GST; large carriers; small tags and cut ends)
VH: EVQLVESGGGLVQPGGSLRLSCAASGFSLSTSGVGVGWIRQAPGKGLEWLALIDWDDDKYYSPSLKSRLTISRDNSKNTLYLQLNSLRAEDTAVYYCARGGSDTVLGDWFAYWGQGTLVTVSS
VL: DIQLTQSPSSLSASVGDRVTITCRASQSVSPYLAWYQQKPGKAPKLLIYDASSLESGVPSRFSGSGSGTDFTLTISSLQPEDFATYYCQQGYSLWTFGQGTKVEIK
modifications: Self-assembled ferritin nanocage (Multabody) made from scFab-hFTL, scFab-N_hFTL and scFc(LLRAL)-C_hFTL fusions, with genes mixed 2:1:1. The letters do not carry this multivalent display.
B3: AG10058 IgG (IgG4; parent IgG of Fab #3) (antibody, V domains shown)
VH: B2 VH
VL: B2 VL
notes: also called Fab #3 IgG
B4: NM21 IgG1 (parent IgG of Fab #1) (antibody, V domains shown)
VH: EVQLVESGGGLVQPGGSLRLSCAASGFSFSANYYPCWVRQAPGKGLEWIGCIYGGSSDITYDANWTKGRFTISRDNSKNTVYLQMNSLRAEDTAVYYCARSAWYSGWGGDLWGQGTLVTVSS
VL: DIQMTQSPSSLSASVGDRVTITCQASQSISNRLAWYQQKPGKAPKLLIYSASTLASGVPSRFSGSGSGTDFTLTISSLQPEDFATYYCQSTYYGNDGNAFGTGTKVTVLG

Experiments:
[1] = molecular target: 4-1BB on engineered 4-1BB-expressing effector cells (luciferase reporter assay) (UniProt Q07011); assay: cell-based or functional assay
[2] = molecular target: 4-1BB on engineered 4-1BB-expressing effector cells (luciferase reporter assay) (UniProt Q07011 24-255, limits assumed); assay: cell-based or functional assay
[3] = molecular target: T1, recombinant mouse 4-1BB protein (mouse, UniProt P20334 24-187); assay: ELISA, plates coated with recombinant 4-1BB, detection with goat α-human Fcγ-HRP
T1 sequence (looked up): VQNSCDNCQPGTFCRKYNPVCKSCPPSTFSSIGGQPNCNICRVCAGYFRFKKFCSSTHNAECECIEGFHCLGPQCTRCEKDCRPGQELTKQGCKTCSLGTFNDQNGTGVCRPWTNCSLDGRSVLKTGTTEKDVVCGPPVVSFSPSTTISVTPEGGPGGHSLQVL
Method: Cross-reactivity was assessed using ELISA. Briefly, plates were coated with recombinant 4-1BB proteins derived from either human, cynomolgus monkey, or mouse. Plates were then washed, blocked, and incubated with bovine serum albumin (BSA), along with a series of known concentrations of α-4-1BB IgGs/MBs. The plate was then washed and incubated with a Goat α-human Fcy-HRP secondary antibody to detect bound IgG/MB. The plates were then washed again and developed with TMB substrate to detect HRP and read at OD 450 nm.

| EC50 (nM) + Fc (4-1BB agonism, luciferase reporter, with FcγRIIb CHO-K1 cells) [1] [nM] | EC50 (nM) - Fc (4-1BB agonism, luciferase reporter, without Fc crosslinking) [1] [nM] | EC50 (nM) + Fc (4-1BB agonism, luciferase reporter, with FcγRIIb CHO-K1 cells) [2] [nM] | EC50 (nM) - Fc (4-1BB agonism, luciferase reporter, without Fc crosslinking) [2] [nM] | binding result [3] | Molecule |
| --- | --- | --- | --- | --- | --- |
| 0.079 | 0.087 |  |  |  | Urelumab MB (effector-silent α-4-1BB Multabody displaying scFabs based on urelumab) |
|  |  | 0.25 | 0.442 |  | B1 |
| 0.019 | 0.02 |  |  |  | B2 |
|  |  | 0.346 |  | binds | B3 |
|  |  | 0.258 |  |  | B4 |
